# Measurements published in the supplement of paper PMC12764529.
# ± gives the half width of the 95% confidence interval.
# Assay: folding stability dG unfold from trypsin proteolysis; higher = more stable
# Summary of the method: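 Bayesian fitting of sequencing counts gave K50 for each design. Unfolding free energy followed by setting this against a sequence-predicted unfolded-state K50 and a shared folded-state K50, either per protease or with trypsin and chymotrypsin combined. The designs, under 80 residues and lacking cysteine, were digested in a PA-tagged cDNA display format at 11 threefold-diluted protease concentrations and without protease, and only those with AlphaFold2 dimer inter-PAE above 15 were kept.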
row,Sequence,folding stability dG unfold [kJ/mol]
1,SAGGMVYVVRLRDEDGTEYTALVEEFDGIYRVRLFDEDGELVEEREFESVEEAIDALLAEGYEVEVYPSAGG [r13_315_TrMRF],16.7 ± 0.331
2,SAGGSAKKPKIKIKIKITNENGEKIEIEIEAETEEEALEAAKKLAEELAKKPNIKEVKIEITEIEPSAGGSA [r15_698_TrROS_Hall],7.29 ± 0.28
3,SAGGSAGGSAGGPEKGKWKLVLVTMTIPLPPGASIPIPNGVWIYYTDGKIEIWFLMWVPDSAGGSAGGSAGG [r7_506_TrROS],13.9 ± 0.628
4,SAGGSAGKITIPARVKITLTPPNGPTVTFDAIITRVEDNSIELILGNVPITIPPNAKNVTITSVEGSAGGSA [r15_510_TrMRF],6.08 ± 0.0753
5,PPGYRPIEIEIPMKVESIEEAKEEVLNFAHELAEAFPNITDINVEVDKIDPNNGYIFAKITIYVGDKTITIS [r1_52_TrROS],1.78 ± 0.544
6,SAGGSAGGSAGDFDIKTVKNPPGTLMIVMPDNGWIQQIKFDPKNGKFKIDEIKWIPLDDISAGGSAGGSAGG [r11_352_TrROS],2.09 ± 0.117
7,SAGGSAMKIELENAKILDIKPTPDGKKVIFIELPSGKIIAVYEDNKVAVRSKKDPSVKPEDADPVFSAGGSA [r15_692_TrMRF],1.56 ± 0.293
8,SAGGSLRGVLFDPEGGRVYVLEYDPALGSFRVRPFPVPPVLPISREAAAEILRRELGLPREVVERLLASAGG [r13_824_TrMRF],10.8 ± 0.343
9,SAGGSAGSLSPIGEHPYTLPDGSRITVPIYRDPATGEIVVEVETETEEEDISEKAEEYAEKVREALSAGGSA [r15_529_JUSTAS],-0.0614 ± 0.201
10,SAGGSPDPNQKPVTVRVEIMIMRPDPNGKWEMRPIEFEMTIGDVEEFLEELEKEPGYMIMVDIEIYSAGGSA [r2_270_TrROS],9.75 ± 0.544
11,SAGGSAGGEPPPVVITVTVRNPATGETVKATAVLNPDGTLQVTVTRPDGSKQTFTATISAEALKSAGGSAGG [r6_588_TrROS_Hall],11.6 ± 1.38
12,SAGGSMTFEIVEVTYDEETDEVTVRVRLPNGEVVTLSAEEIEKAIKEGKTITFTLENGEKLEIEVLSAGGSA [r2_301_TrROS_Hall],6.25 ± 0.159
13,SAGPAVVIPLPLDPEKWSPEEILEAAIKLAEEAYKAGLPGSVTLLVPVPEKPLLITIDPKTGKITVDPSAGG [r19_204_TrMRF],6.24 ± 0.347
14,SAGGSMRITKIEIEPNPNGDYKITITMTENGHITVEVMNPNGKPKEVEVNMPNGDPEEVVKEAIKASAGGSA [r2_298_TrROS],2.87 ± 0.172
15,SAGGIKEAFEAGVEVKDVEVPVLFPDGSEAEVVEVDPVDDGVRVVLRNPVTGELFEREIPPELIEPRPSAGG [r13_340_TrMRF],2.73 ± 0.0795
16,SAGGGLIRDAIENNPELRELLKEGYVLYVTYPDGKSGVIEINNASASEIDDAIRAHFPGEVELEFGSSAGGS [r16_655_TrMRF],4.36 ± 0.117

row,Sequence,folding stability dG unfold [kJ/mol]
1,SAGGSAGGSAPETSLTSTFEFRFEVDGELYAVRIERRVLLSADGDLRVETRIEIIPIPPDVPASAGGSAGGS [r12_927_TrMRF],15.6 ± 0.544
2,SAGGSAGGSAKTIKVLVRDKETGEVFEVEAEIVEFDEETGELLIKVRLPNGKTLTLSAEELLSAGGSAGGSA [r18_334_TrROS_Hall],10.6 ± 0.41
3,SAGGSAGGSAGGNIEIFYFPDGYVVITIWDPDEGWRIVITAKIDPGDGKIKEMDIMPVPSAGGSAGGSAGGS [r10_613_TrROS],11.2 ± 0.753
4,SAGGSAGGSAGSTITIRINGKTYTIEVDESEEEALERIRELARALLPEGEVEVTVERREPSAGGSAGGSAGG [r11_1028_TrROS_Hall],9.21 ± 0.197
5,SAGGSAGGSAGGLGPDEKPKVKYLALIYDPETGEVTVVPADKLDKVLKETDASVSLFPVSAGGSAGGSAGGS [r10_1121_TrMRF],1.47 ± 0.418
6,SMVTVETRPEEVLPDAEGRLRRVTVVITFPDGKTLTVDMEFPPDVSDEEVEERLRALVEELGVESIELLGSA [r9_1203_JUSTAS],15.5 ± 0.46
7,SAGGSAVPKLPTGVEVEPLAVIDPETASPEEIRALLAEHPGPLLVRPSSTGEWRVVPAEELLALLGSAGGSA [r15_904_JUSTAS],4.12 ± 0.142
8,SAGGSAGGSAGAVFTLPDGMKITIEKNEDGTYTITIETDGKTETIEIKPGETIEIEIFPPSAGGSAGGSAGG [r11_164_TrROS_Hall],10.2 ± 0.389
9,SAGGSKIQISIWEDPENDYTWVTIWFPDDEELVDFFVEDIADLGVKKVETERFPDNGWRRITILIRSAGGSA [r2_358_TrROS],10.2 ± 0.264
10,SAGGSAGGDYVKIEIWIPPGMPDAEELVDKMSNYGFEIKKIERDPKNNYVRVTIVFQIPPGAIKSAGGSAGG [r6_604_TrROS],6.97 ± 0.351
11,SAGGAPLSSSEEVEALLKEGGAEFVSKTSVTITEPGVPVTVNVYTIRVKDPSSDKWTLVEVPSSLLSSAGGS [r16_271_JUSTAS],0.802 ± 0.502
12,SAGPKTITIWFRSPEWIRKLAKELGFEIKKVKRTGDYWSVEFTREGGKNIEIHIPDDALKELGFDLDDISAG [r5_12_TrROS],9.62 ± 0.184
13,SAGGSPEIPKDYEVIEIDAETLPDGSVLIPIIVRDPIIPYYLKMYYRSIPTRWEPISFELIHPDELSAGGSA [r2_371_TrMRF],5.21 ± 0.0753
14,SAPPRISIPWDPESGNWRVKVYNPKDPGKKREIDIPMKELQAKHGKPMSPNEIAQWLVKKGIDYVEIYPSAG [r14_809_TrROS],0.767 ± 0.795
15,SAGGSAGGMVEEIIEEFKKKGYNPEVEVRKTSPETTVVTLKLPDKEVIVEVKPLTPEELEEILRSAGGSAGG [r6_786_JUSTAS],1.55 ± 0.218
16,SAGGSAGGSAMETVYIPKEEVEKDPEKLEEIKEKLKKELEEKGKKVEFKEDPNGGYTITVESAGGSAGGSAG [r3_75_JUSTAS],1.44 ± 0.226
